{"source": "paper PMC4155600", "about": "(Journal of nucleic acids investigation, 2013)", "binders": {"B1": {"name": "Saccharomyces cerevisiae Cdc13 (1–924), full-length protein (natural protein, UniProt P32797 1-924, looked up)", "chain": "MDTLEEPECPPHKNRIFVSSSKDFEGYPSKAIVPVQFVALLTSIHLTETKCLLGFSNFERRGDQSQEDQYLIKLKFKDRGSERLARITISLLCQYFDIELPDLDSDSGASPTVILRDIHLERLCFSSCKALYVSKHGNYTLFLEDIKPLDLVSVISTISTKSTNSSKHSSSELISECDLNNSLVDIFNNLIEMNRDEKNRFKFVKLIHYDIELKKFVQDQQKVLSQKSKAAAINPFFVPNRLGIPYIESQNEFNSQLMTLNVDEPTTDISNMGEEMHDSADPIEDSDSSTTSSTGKYFSSKSYIQSQTPERKTSVPNNWHDDDSGSKRKRKLSFHSPNASSIRKAISYEQLSLASVGSVERLEGKIVGMNPPQFASINEFKYCTLKLYFTQLLPNVPDKVLVPGVNCIEIVIPTRERICELFGVLNCQSDKISDILLLEKPDRISVEVERILWDNDKTASPGMAVWSLKNISTDTQAQAQVQVPAQSSASIDPSRTRMSKMARKDPTIEFCQLGLDTFETKYITMFGMLVSCSFDKPAFISFVFSDFTKNDIVQNYLYDRYLIDYENKLELNEGFKAIMYKNQFETFDSKLRKIFNNGLRDLQNGRDENLSQYGIVCKMNIKVKMYNGKLNAIVRECEPVPHSQISSIASPSQCEHLRLFYQRAFKRIGESAISRYFEEYRRFFPIHRNGSHLAKLRFDEVKHEPKKSPTTPALAEHIPDLNADVSSFDVKFTDISSLLDSSARLPRPQQTHKSNTLYSCEGRIIAIEYHASDLCFHITNELPLLQTRGLAPERVLQLHIITSKNFAYFFNRSSAYLQRQPLEEKYTQLAQFLGHSFKFNITSSLTLFPDTTVALQIWCPIECTFRELQQQLAHPKVAAAPDSGSLDCAINATVNPLRLLAAQNGVTVKKEEDNDDDAGAVPTS"}}, "key": {"SpPot1-DBD [1]": {"target": "T1, SpPot1-DBD (Schizosaccharomyces pombe, UniProt O13988 1-389)", "T1 sequence": "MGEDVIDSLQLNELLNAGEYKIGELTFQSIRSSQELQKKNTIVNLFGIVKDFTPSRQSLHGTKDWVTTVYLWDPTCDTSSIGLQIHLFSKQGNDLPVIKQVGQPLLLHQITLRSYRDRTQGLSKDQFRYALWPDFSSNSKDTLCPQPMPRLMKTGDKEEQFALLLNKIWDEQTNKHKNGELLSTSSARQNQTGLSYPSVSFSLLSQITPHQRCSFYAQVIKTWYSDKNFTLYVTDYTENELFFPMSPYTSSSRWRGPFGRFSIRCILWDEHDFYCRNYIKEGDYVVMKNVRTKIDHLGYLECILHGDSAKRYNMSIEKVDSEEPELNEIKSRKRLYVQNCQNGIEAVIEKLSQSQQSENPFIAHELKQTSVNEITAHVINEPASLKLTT", "test": "EMSA"}, "SpPot1-DBD [2]": {"target": "T1, SpPot1-DBD", "test": "EMSA", "remark": "listed apart in the source"}, "SpPot1-DBD [3]": {"target": "T1, SpPot1-DBD", "test": "EMSA", "remark": "listed apart in the source"}, "SpPot1-DBD [4]": {"target": "T1, SpPot1-DBD", "test": "EMSA", "remark": "listed apart in the source"}, "SpPot1 [5]": {"target": "T2, SpPot1 (Schizosaccharomyces pombe, UniProt O13988 1-555)", "T2 sequence": "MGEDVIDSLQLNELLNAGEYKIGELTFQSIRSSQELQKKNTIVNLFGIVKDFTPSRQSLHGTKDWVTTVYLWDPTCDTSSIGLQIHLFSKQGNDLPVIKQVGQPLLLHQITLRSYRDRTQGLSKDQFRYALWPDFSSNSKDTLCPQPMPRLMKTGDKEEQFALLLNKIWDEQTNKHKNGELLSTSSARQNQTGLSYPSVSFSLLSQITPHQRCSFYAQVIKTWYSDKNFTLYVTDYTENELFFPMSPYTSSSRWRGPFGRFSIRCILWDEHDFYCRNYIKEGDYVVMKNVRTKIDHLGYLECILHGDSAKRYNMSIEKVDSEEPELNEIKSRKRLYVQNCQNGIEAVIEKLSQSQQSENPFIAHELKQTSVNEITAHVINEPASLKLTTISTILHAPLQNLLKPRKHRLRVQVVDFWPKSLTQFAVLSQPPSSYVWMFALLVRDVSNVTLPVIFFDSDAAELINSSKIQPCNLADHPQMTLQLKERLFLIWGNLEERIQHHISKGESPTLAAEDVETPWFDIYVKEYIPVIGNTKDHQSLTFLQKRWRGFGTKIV"}, "SpPot1-DBD [6]": {"target": "T1, SpPot1-DBD", "test": "EMSA", "remark": "listed apart in the source"}, "SpPot1-DBD [7]": {"target": "T1, SpPot1-DBD", "test": "EMSA", "remark": "listed apart in the source"}, "native gel or EMSA": {"target": "the molecule itself", "test": "native gel or EMSA"}, "SpPot1 [8]": {"target": "T2, SpPot1", "test": "filter binding"}, "SpPot1 [9]": {"target": "T2, SpPot1", "test": "filter binding", "remark": "listed apart in the source"}, "SpPot1 [10]": {"target": "T2, SpPot1", "test": "filter binding", "remark": "listed apart in the source"}, "SpPot1 [11]": {"target": "T2, SpPot1", "test": "filter binding", "remark": "listed apart in the source"}, "SpPot1-DBD [12]": {"target": "T1, SpPot1-DBD", "test": "EMSA", "remark": "listed apart in the source"}, "Cdc13": {"target": "T3, Cdc13 (Saccharomyces cerevisiae, UniProt P32797 1-924)", "T3 sequence": "B1 chain", "test": "EMSA"}}, "note": "Like-named read-outs stand apart in the source and are kept apart here.", "data": [{"binder": "GGTTACGGTTACGGT (ssDNA)", "note": "[15mer]", "values": [{"measurement": "Kd", "setting": "SpPot1-DBD [1]", "value": "4.9 ± 0.8", "unit": "pM"}, {"measurement": "Kd", "setting": "SpPot1-DBD [2]", "value": 1.6, "unit": "pM"}, {"measurement": "Kd", "setting": "SpPot1-DBD [3]", "value": 1.5, "unit": "pM"}, {"measurement": "Kd", "setting": "SpPot1-DBD [4]", "value": 4.2, "unit": "pM"}, {"measurement": "Kd", "setting": "SpPot1 [5]", "value": "5.2 ± 0.5", "unit": "pM"}, {"measurement": "Kd", "setting": "SpPot1-DBD [6]", "value": 5, "unit": "pM"}, {"measurement": "Kd", "setting": "SpPot1-DBD [7]", "value": 10.3, "unit": "pM"}]}, {"binder": "B1", "values": [{"measurement": "stoichiometry N", "setting": "native gel or EMSA", "value": 2}]}, {"binder": "GGTTACGGTTAC (ssDNA)", "note": "[12mer]", "values": [{"measurement": "Kd", "setting": "SpPot1 [8]", "value": 700, "unit": "pM"}, {"measurement": "Kd", "setting": "SpPot1 [9]", "value": 130, "unit": "pM"}, {"measurement": "Kd", "setting": "SpPot1 [5]", "value": "6.7 ± 0.9", "unit": "pM"}, {"measurement": "Kd", "setting": "SpPot1 [10]", "value": 14, "unit": "pM"}, {"measurement": "Kd", "setting": "SpPot1 [11]", "value": 100, "unit": "pM"}]}, {"binder": "GGTTA (ssDNA)", "note": "[d(GGTTA) 5mer]", "values": [{"measurement": "Kd", "setting": "SpPot1-DBD [12]", "value": "~10000", "unit": "pM"}]}, {"binder": "GTGTGGGTGTG (ssDNA)", "note": "[Tel11]", "values": [{"measurement": "Kd", "setting": "Cdc13", "value": "13.4 ± 0.8", "unit": "pM"}]}]}
